Data as given in patent US20250236653A1 (ONKO INNATE, published 2025).

T1: human OX40 (human, UniProt P43489 29-277)
T1 construct: whole, on cells; also called hOX40
T1 sequence (looked up): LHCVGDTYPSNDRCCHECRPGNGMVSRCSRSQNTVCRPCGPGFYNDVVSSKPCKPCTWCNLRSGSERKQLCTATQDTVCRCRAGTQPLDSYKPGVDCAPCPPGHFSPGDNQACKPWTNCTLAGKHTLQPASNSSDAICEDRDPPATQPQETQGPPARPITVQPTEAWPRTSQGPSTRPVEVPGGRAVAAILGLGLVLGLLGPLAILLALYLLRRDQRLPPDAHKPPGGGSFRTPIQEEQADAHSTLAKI


Tests used:
human OX40 = target: T1, human OX40; experiment: flow cytometry on hOX40-Jurkat-NF-κB cells
Protocol: Stained hOX40-Jurkat-NF-κB and cOX40-Jurkat-NF-κB cells were analyzed by flow cytometry using a CytoFLEX (Beckman Coulter), the results of which are depicted in FIGS. 78 and 79, respectively, and summarized in FIG. 80.
Binding of each of the sequence optimized IL-12 ABD fusion proteins to hOX40-Jurkat-NF-κB cells was performed as described in Example 16, the results of which are depicted in FIG. 87 and summarized in FIG. 88.

human IL-12 receptor = human IL-12 receptor (human, UniProt P42701 24-662; Q99665 24-862); experiment: cell-based or functional assay
Sequence of human IL-12 receptor (Q99665 24-862 limits assumed, chain 2 of 2, other chains not shown): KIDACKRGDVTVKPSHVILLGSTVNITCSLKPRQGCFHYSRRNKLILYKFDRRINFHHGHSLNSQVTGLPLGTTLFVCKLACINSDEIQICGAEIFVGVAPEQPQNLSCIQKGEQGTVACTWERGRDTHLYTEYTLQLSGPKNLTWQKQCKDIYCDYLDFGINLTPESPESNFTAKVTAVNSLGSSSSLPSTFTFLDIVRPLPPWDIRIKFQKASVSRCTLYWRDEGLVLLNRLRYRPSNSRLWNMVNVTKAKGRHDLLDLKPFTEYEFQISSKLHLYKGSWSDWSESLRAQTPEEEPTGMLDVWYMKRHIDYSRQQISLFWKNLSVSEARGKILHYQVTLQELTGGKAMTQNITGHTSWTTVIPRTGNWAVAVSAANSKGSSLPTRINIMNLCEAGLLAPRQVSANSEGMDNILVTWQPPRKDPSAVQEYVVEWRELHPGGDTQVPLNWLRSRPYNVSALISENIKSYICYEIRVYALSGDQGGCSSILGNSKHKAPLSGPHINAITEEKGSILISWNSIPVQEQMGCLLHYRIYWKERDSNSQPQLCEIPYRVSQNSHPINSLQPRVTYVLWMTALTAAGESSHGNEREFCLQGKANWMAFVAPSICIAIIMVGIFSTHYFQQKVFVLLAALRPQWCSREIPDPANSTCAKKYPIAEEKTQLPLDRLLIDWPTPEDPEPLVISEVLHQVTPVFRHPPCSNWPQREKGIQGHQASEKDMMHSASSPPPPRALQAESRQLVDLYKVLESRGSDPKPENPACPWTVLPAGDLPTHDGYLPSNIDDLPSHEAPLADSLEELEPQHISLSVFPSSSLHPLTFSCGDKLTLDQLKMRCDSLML

EC50 (human OX40) [nM] | SEAP of CCR8-HEK-Blue IL-12 reporter cells (OD 650 nm), EC50 (human IL-12 receptor) [nM] | Binder | further results
 |  | mono-mut23-20E5_V5 (Fc fusion) IWELKKDVYVVELDWYPDAPGEMVVLTCDTPEEDGITWTLDQSSEVLGSGKTLTIQVKEFGDAGQYTCHKGGEVLSHSLLLLHKKEDGIWSTDILKDQKEPKNKTFLRCEAKNYSGRFTCWWLTTISTDLTFSVKSSRGSSDPQGVTCGAATLSAERVRGDNKEYEYSVECQEDSACPAAEESLPIEVMVDAVHKLKYENYTSSFFIRDIIKPDPPKNLQLKPLKNSRQVEVSWEYPDTWSTPHSYFSLTFSVQVQGKSKREKKDRVFTDKTSATVICRKNASISVRAQDRYYSSSWSEWASVPCSGGGGSGGGGSGGGGSGGGGSGGGGSRNLPVATPDPGMFPCLHHSQNLLRAVSNMLQKARQTLEFSPCTSEEIDHEDITKDKTSTVEACLPLELTKNESCLNSRETSFITNGSCLASRKTSFMMALCLSSIYEDLKMYQVEFKTMNAKLLMDPKRQIFLDQNMLAVIDELMQALNFNSETVPQKSSLEEPDFYKTAIKLCILLHAFRIRAVTIDRVMSYLNASGGGGSGGGGSEPKSSDKTHTCPPCPAPEFEGGPSVFLFPPKPKDTLMISRTPEVTCVVVDVSHEDPEVKFNWYVDGVEVHNAKTKPREEQYNSTYRVVSVLTVLHQDWLNGKEYKCKVSNKALPASIEKTISKAKGQPREPQVCTLPPSRDELTKNQVSLSCAVKGFYPSDIAVEWESNGQPENNYKTTPPVLDSDGSFFLVSKLTVDKSRWQQGNVFSCSVMHEALHNHYTQKSLSLSPG heavy: QVQLVQSGAEVKKPGASVKVSCKASGYTFTSYVMHWVRQAPGQRLEWIGYINPYNAGTKYNEKFKGRATLTSDKSASTAYMELSSLRSEDTAVYYCANYYGSSLSMDYWGQGTLVTVSSASTKGPSVFPLAPSSKSTSGGTAALGCLVKDYFPEPVTVSWNSGALTSGVHTFPAVLQSSGLYSLSSVVTVPSSSLGTQTYICNVNHKPSNTKVDKKVEPKSCDKTHTCPPCPAPEFEGGPSVFLFPPKPKDTLMISRTPEVTCVVVDVSHEDPEVKFNWYVDGVEVHNAKTKPREEQYNSTYRVVSVLTVLHQDWLNGKEYKCKVSNKALPASIEKTISKAKGQPREPQVYTLPPCRDELTKNQVSLWCLVKGFYPSDIAVEWESNGQPENNYKTTPPVLDSDGSFFLYSKLTVDKSRWQQGNVFSCSVMHEALHNHYTQKSLSLSPG light: not shown | binding result (human OX40): binds
645 |  | mono-mut23-12H3_V6 (Fc fusion) IWELKKDVYVVELDWYPDAPGEMVVLTCDTPEEDGITWTLDQSSEVLGSGKTLTIQVKEFGDAGQYTCHKGGEVLSHSLLLLHKKEDGIWSTDILKDQKEPKNKTFLRCEAKNYSGRFTCWWLTTISTDLTFSVKSSRGSSDPQGVTCGAATLSAERVRGDNKEYEYSVECQEDSACPAAEESLPIEVMVDAVHKLKYENYTSSFFIRDIIKPDPPKNLQLKPLKNSRQVEVSWEYPDTWSTPHSYFSLTFSVQVQGKSKREKKDRVFTDKTSATVICRKNASISVRAQDRYYSSSWSEWASVPCSGGGGSGGGGSGGGGSGGGGSGGGGSRNLPVATPDPGMFPCLHHSQNLLRAVSNMLQKARQTLEFSPCTSEEIDHEDITKDKTSTVEACLPLELTKNESCLNSRETSFITNGSCLASRKTSFMMALCLSSIYEDLKMYQVEFKTMNAKLLMDPKRQIFLDQNMLAVIDELMQALNFNSETVPQKSSLEEPDFYKTAIKLCILLHAFRIRAVTIDRVMSYLNASGGGGSGGGGSEPKSSDKTHTCPPCPAPEFEGGPSVFLFPPKPKDTLMISRTPEVTCVVVDVSHEDPEVKFNWYVDGVEVHNAKTKPREEQYNSTYRVVSVLTVLHQDWLNGKEYKCKVSNKALPASIEKTISKAKGQPREPQVCTLPPSRDELTKNQVSLSCAVKGFYPSDIAVEWESNGQPENNYKTTPPVLDSDGSFFLVSKLTVDKSRWQQGNVFSCSVMHEALHNHYTQKSLSLSPG heavy: QVQLVQSGAEVKKPGSSVKVSCKASGYTFKDYTMHWVRQAPGQGLEWIGGIYPNNGGSTYNQNFKDRVTLTADKSTSTAYMELSSLRSEDTAVYYCARLGYHGPHLDFDVWGQGTTVTVSSASTKGPSVFPLAPSSKSTSGGTAALGCLVKDYFPEPVTVSWNSGALTSGVHTFPAVLQSSGLYSLSSVVTVPSSSLGTQTYICNVNHKPSNTKVDKKVEPKSCDKTHTCPPCPAPEFEGGPSVFLFPPKPKDTLMISRTPEVTCVVVDVSHEDPEVKFNWYVDGVEVHNAKTKPREEQYNSTYRVVSVLTVLHQDWLNGKEYKCKVSNKALPASIEKTISKAKGQPREPQVYTLPPCRDELTKNQVSLWCLVKGFYPSDIAVEWESNGQPENNYKTTPPVLDSDGSFFLYSKLTVDKSRWQQGNVFSCSVMHEALHNHYTQKSLSLSPG light: DIQMTQSPSSLSASVGDRVTITCKASQDVGAAVAWYQQKPGKAPKLLIYWASTRHTGVPSRFSGSGSGTDFTLTISSLQPEDFATYYCQQYINYPLTFGGGTKVEIKRTVAAPSVFIFPPSDEQLKSGTASVVCLLNNFYPREAKVQWKVDNALQSGNSQESVTEQDSKDSTYSLSSTLTLSKADYEKHKVYACEVTHQGLSSPVTKSFNRGEC | 
113 |  | mono-mut23-12H3_V5 (Fc fusion) IWELKKDVYVVELDWYPDAPGEMVVLTCDTPEEDGITWTLDQSSEVLGSGKTLTIQVKEFGDAGQYTCHKGGEVLSHSLLLLHKKEDGIWSTDILKDQKEPKNKTFLRCEAKNYSGRFTCWWLTTISTDLTFSVKSSRGSSDPQGVTCGAATLSAERVRGDNKEYEYSVECQEDSACPAAEESLPIEVMVDAVHKLKYENYTSSFFIRDIIKPDPPKNLQLKPLKNSRQVEVSWEYPDTWSTPHSYFSLTFSVQVQGKSKREKKDRVFTDKTSATVICRKNASISVRAQDRYYSSSWSEWASVPCSGGGGSGGGGSGGGGSGGGGSGGGGSRNLPVATPDPGMFPCLHHSQNLLRAVSNMLQKARQTLEFSPCTSEEIDHEDITKDKTSTVEACLPLELTKNESCLNSRETSFITNGSCLASRKTSFMMALCLSSIYEDLKMYQVEFKTMNAKLLMDPKRQIFLDQNMLAVIDELMQALNFNSETVPQKSSLEEPDFYKTAIKLCILLHAFRIRAVTIDRVMSYLNASGGGGSGGGGSEPKSSDKTHTCPPCPAPEFEGGPSVFLFPPKPKDTLMISRTPEVTCVVVDVSHEDPEVKFNWYVDGVEVHNAKTKPREEQYNSTYRVVSVLTVLHQDWLNGKEYKCKVSNKALPASIEKTISKAKGQPREPQVCTLPPSRDELTKNQVSLSCAVKGFYPSDIAVEWESNGQPENNYKTTPPVLDSDGSFFLVSKLTVDKSRWQQGNVFSCSVMHEALHNHYTQKSLSLSPG heavy: QVQLVQSGAEVKKPGSSVKVSCKASGYTFKDYTMHWVRQAPGQGLEWIGGIYPNNAGSTYNQNFKDRVTLTADKSTSTAYMELSSLRSEDTAVYYCARMGYHGPHLDFDVWGQGTTVTVSSASTKGPSVFPLAPSSKSTSGGTAALGCLVKDYFPEPVTVSWNSGALTSGVHTFPAVLQSSGLYSLSSVVTVPSSSLGTQTYICNVNHKPSNTKVDKKVEPKSCDKTHTCPPCPAPEFEGGPSVFLFPPKPKDTLMISRTPEVTCVVVDVSHEDPEVKFNWYVDGVEVHNAKTKPREEQYNSTYRVVSVLTVLHQDWLNGKEYKCKVSNKALPASIEKTISKAKGQPREPQVYTLPPCRDELTKNQVSLWCLVKGFYPSDIAVEWESNGQPENNYKTTPPVLDSDGSFFLYSKLTVDKSRWQQGNVFSCSVMHEALHNHYTQKSLSLSPG light: DIQMTQSPSSLSASVGDRVTITCKASQDVGAAVAWYQQKPGKAPKLLIYWASTRHTGVPSRFSGSGSGTDFTLTISSLQPEDFATYYCQQYINYPLTFGGGTKVEIKRTVAAPSVFIFPPSDEQLKSGTASVVCLLNNFYPREAKVQWKVDNALQSGNSQESVTEQDSKDSTYSLSSTLTLSKADYEKHKVYACEVTHQGLSSPVTKSFNRGEC | 
 | 12.5 | IL-12 Fc mut9 (Fc fusion) RNLPVATPDPGMFPCLHHSQNLLRAVSNMLQKARQTLEFPPCTSEEIDHEDITKDKTSTVEACLPLELTKNESCLNSRETSFITNGSCLASRKTSFMMALCLSSIYEDLKMYQVEFKTMNAKLLMDPKRQIFLDQNMLAVIDELMQALNFNSETVPQKSSLEEPDFYATKIKLCILLHAFRIRAVTIDRVMSYLNAS | 
 | 0.17 | commercially available recombinant IL-12 (rIL-12, Miltenyi) (ligand) chain 1: RNLPVATPDPGMFPCLHHSQNLLRAVSNMLQKARQTLEFYPCTSEEIDHEDITKDKTSTVEACLPLELTKNESCLNSRETSFITNGSCLASRKTSFMMALCLSSIYEDLKMYQVEFKTMNAKLLMDPKRQIFLDQNMLAVIDELMQALNFNSETVPQKSSLEEPDFYKTKIKLCILLHAFRIRAVTIDRVMSYLNAS chain 2: IWELKKDVYVVELDWYPDAPGEMVVLTCDTPEEDGITWTLDQSSEVLGSGKTLTIQVKEFGDAGQYTCHKGGEVLSHSLLLLHKKEDGIWSTDILKDQKEPKNKTFLRCEAKNYSGRFTCWWLTTISTDLTFSVKSSRGSSDPQGVTCGAATLSAERVRGDNKEYEYSVECQEDSACPAAEESLPIEVMVDAVHKLKYENYTSSFFIRDIIKPDPPKNLQLKPLKNSRQVEVSWEYPDTWSTPHSYFSLTFCVQVQGKSKREKKDRVFTDKTSATVICRKNASISVRAQDRYYSSSWSEWASVPCS | 
 |  | commercially available recombinant mouse IL-12 (rmIL-12, BioLegend) (ligand) chain 1: RVIPVSGPARCLSQSRNLLKTTDDMVKTAREKLKHYSCTAEDIDHEDITRDQTSTLKTCLPLELHKNESCLATRETSSTTRGSCLPPQKTSLMMTLCLGSIYEDLKMYQTEFQAINAALQNHNHQQIILDKGMLVAIDELMQSLNHNGETLRQKPPVGEADPYRVKMKLCILLHAFSTRVVTINRVMGYLSSA chain 2: MWELEKDVYVVEVDWTPDAPGETVNLTCDTPEEDDITWTSDQRHGVIGSGKTLTITVKEFLDAGQYTCHKGGETLSHSHLLLHKKENGIWSTEILKNFKNKTFLKCEAPNYSGRFTCSWLVQRNMDLKFNIKSSSSSPDSRAVTCGMASLSAEKVTLDQRDYEKYSVSCQEDVTCPTAEETLPIELALEARQQNKYENYSTSFFIRDIIKPDPPKNLQMKPLKNSQVEVSWEYPDSWSTPHSYFSLKFFVRIQRKKEKMKETEEGCNQKGAFLVEKTSTEVQCKGGNVCVQAQDRYYNSSCSKWACVPCRVRS | IFNγ in the supernatant of activated/expanded human T cells (AlphaLISA), EC50 (human IL-12 receptor): 0.0193 nM
